According to the RNAGym collection of RNA variant scans (doi:10.1073/pnas.2313332121):
Fewer inactive variants are shown than the library holds.

B1: TPR 5TU (parent)
chain: GGAUCUUCUCGAUCUAACAAAAAAGACAAAUCUGCCACAAAGCUUGAGAGCAUCUUCGGAUGCAGAGGCGGCAGCCUUCGGUGGCGCGAUAGCGCCAACGUUCUCAACUAUGACACGCAAAACGCGUGCUCCGUUGAAUGGAGUUUAUCAUG

Variants of: B1
Experiment: polymerase ribozyme fitness, log enrichment relative to wild type (log ratio); higher = more active; in vitro selection for triplet polymerase activity
Summary of the method: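 Mutant libraries for each subunit of a heterodimeric triplet polymerase ribozyme were made by PCR and then transcribed. Each library underwent one round of in vitro selection in triplicate: annealing with a biotinylated primer, the partner subunit and triplets, frozen incubation at −7 °C, gel excision of extended constructs, streptavidin-bead capture and RT-PCR. Input and output libraries were Illumina-sequenced, and only genotypes with ≥10 input reads and ≥1 read per output were kept. Fitness is the logarithm, base 2, of genotype enrichment over wild-type enrichment, computed from inverse-variance-weighted replicate averages.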

| Variant | polymerase ribozyme fitness (log ratio) |
| --- | --- |
| GGAUCUUCUCGAUCUUACAAAAAAGACAAAUCUGCCACAAAGCUUGAGAGCAUCUUCGGAUGCAGAGGCGGCAGCCUUCGGUGGCGCGAUAGCGCCAACGUUCUCAACUAUGACAAGCAAAACGCGUGCUCCGUUGAAUGGAGUUUAUCAUG [A16U C116A] | -0.257 |
| GGAUCUUCUCGAUCUAACAAAAAAGACAAAUCUGCCACAAAGCUUGAGCCCAUCUUCGGAUGCAGAGGCGGCAGCUUUCGGUGGCGCGAUUGCGCCUACGUUCUCAACUACGACACGCAAAACGCGUGCUCCGUUGAAUGGACUUUAUCUUG [A49C G50C C76U A91U A97U U111C G143C A150U] | ≤ -4.2 |
| GGAUCUUCUCGUUCUAACAAAAAAGACAAAUCUGGCACAAAGCUUGAGAGCAUCUUCGGCAGCAGAGGCGGCAGCAUUCGGUGGCGCGAUAGCGCCAACGUUCUCAACUAUGACACGCAAAACUCGUGCUCCGUUGAAUGGAGUUUAUCAUG [A12U C35G A60C U61A C76A G124U] | ≤ -4.2 |
| GGAUCUUCUCGAUCUAACAAAAAAGACAAAUCUGCCACAAAGCUUGAGAGCAUCUACGGAUGCAGAGGCGGCAGCCUUCGGUGGCGGGAUAGCCCCAACGUUCCCAACUAUGACACUCUAAACGCGUGCUCCGCUGAAUGGAGUUUAUCAUG [U56A C87G G94C U104C G117U A119U U134C] | -3.94 |
| GGAUCUUCUCGAUCUAACAAAAAAGACAAAUCUGCCACAAAGCUUGAGAGCAUCUUCGGAUGCAGAGGCAGCAGCCUUCGGUGGCGCGAUUGCGCCAACGUUCUCAACUAUGACACGCAAAAUGCGUGCUCCGUUGACUGGAGUUUAUUAUG [G70A A91U C123U A138C C149U] | ≤ -4.2 |
| GGAUCUUCUCGAUCUAACAAAAAAGACAAAUCUGCCACAAAGCUUGAGAGCAUCUUCGGAAGCAGAGGCGGCAGCCUUCGGUGGCGCGAUAGCGCCAACGUUCUCAACUAUGACACGCAAAACGCCUGCUCCGUUGAAUGGAGUUUAUCAUG [U61A G126C] | -0.89 |
| GGAUCUUCUCGAUCUAACAAAAAAGACAAAUCUGCCACAAAGCUUGAGAGCAUCUUUGGAUGCAGAGGCGGCAGCCUUCGGUGGCGCGAUAGCGCCGACGUUCUCAACUAUGACACGCAAAACGCGUCCUCCGUUGAAUGCAGUUUAUCAUG [C57U A97G G128C G141C] | -3.99 |
| GGAUCUUCUCGAUCUAACAAAAAAGACAAAUCUGCCACAAAGCUUGAGAGCAUCUUCUGAUGCAGAGGCGGCAGCCUUCGGUGGCGAGAUAGCGCCAACGUUCUCAACCAUGACACGCAAAACGCGUGCUCCGUUGAAUGGAGUUUACCAUG [G58U C87A U109C U148C] | ≤ -4.2 |
| GGAUCUUCUCGAUCUAACAAAAAAGACAAAUCUGCCACAGGGCUUGAGAGCAUCUUCGGAUGCAGACGCGGCAGCCUUCGGUGGCGCGAUAGCGCCAACGUUCUCAACUAUGACACGCACAACGCGUGCUCCGUUGAAUGGAGUUUAUCAUG [A40G A41G G67C A120C] | ≤ -4.2 |
| GGAUCUUCUCGAUCUAACAAAAAAGAUAAAUCUGCCACAAAGCUUGAGAGCAUCUUCGGAUGCAGAGGCGGCAGCUUUCGGUGGCGCGAUAGCGCCAACGUUCUCAACUAUGACACGCAAAACGCGUGCUCCGUUGAAUGGAGUUUAUCAUG [C27U C76U] | -1.42 |
| GGAUCUUCUUGAUCUAACAAAAAAGAUAAAUCUGGCACAAAGCUUGAGAGCAUCUUCGGAUGCAGAGGCGGCAGCCUUCGGUGGCGGGAUAGCGCUAACGUUCUCAACUAUGACACGCAAAACGCGUGCUCCGUUGAAUGGAGUUUAGCAUG [C10U C27U C35G C87G C96U U148G] | ≤ -4.2 |
| GGAUCUUCUCGAUCUAACAAAAGAGACAAAUCUGCCACAGACCUUGAGAGCAUCUUCGGAUGCAGAGGCGGCAGCCUUCGGUGGCGCGAUAGCGCCAACGUUCUCAACUAUGACACGCAAAACGCGUGCUCCGUUGAAUGGAGUUUAUCAUG [A23G A40G G42C] | ≤ -4.2 |
| GGAUCUUCUCGAUCUAACAAAAAAGACAAAUCUGCCACAAAGCUUGAGAGCAUCUUCGUAUGCAGAGGCGGCAGCCUUCGGUGGCGCGAGGGCGACAACGUUCUCAACUAUGACACGCAAAACGCCUGCUCCGUUGAAUGGAGUUGAUCAUG [G59U U90G A91G C95A G126C U146G] | ≤ -4.2 |
| GGAUCUUCUCGAUCUAACAUAAAAGACAAAUCUGACACAACGCUUGAGAGCAUCUUCGGAUGCAGAGGCGGCAGCCUUCGGUGGCGCGAUAGCGUCAACGUUCUCAACUAUGACACGCAAAACGCGUGCUCCGUUGAAUGGAGUAUAUCAUG [A20U C35A A41C C95U U145A] | ≤ -4.2 |
| GGAUCUUCUCGAUCUAACAAGAAAGACAAAUCUGCCACAAAGCUUGAGAGCAUCUUCCGAUGCAGAGGCGGCAGCCUUCGGUGGCGCGAUAGCGCCAACGUUCUCAACUAUGACACGCAAAACGCGUGCUCCGUUGAAUGGAGUUUAUCAUG [A21G G58C] | 0.298 |
| GGAUCUUAUCGAUCUAACAAAAAAGACUAAUCUGCCACAAAGCUUGAGAGCAUCUUCGGAUGCAGAGGCGGCAGCCUUUGGUGGCGCGAUAGUGCCAACGUUCUUAACUAUGACACGCAAAACGCGUGCUCCGUUGAAUGGAGUUUAUCAUG [C8A A28U C79U C93U C105U] | ≤ -4.2 |
| GGAUAUUCUCGAUCUAACAAAAAAGACAAAUCUGCCACAAAGCUUGAGAGCAUCUUCGGAUGCAGAGGAGGCAGCCUUCGGUGACGCGAUAGCGCCAACGUUCGCAACUAUGACACGCAAAACGUAUGCUCCGUUGAAUGGCGUUUAUCAUG [C5A C69A G84A U104G C125U G126A A142C] | ≤ -4.2 |
| GGAUCUUCUCGGUCUAACAAAAAAGACAAAUCUGCCACAAAGCUUGAGAGCAUCUUCGGAUGCAGAGGCGGCAGCCUUCGGUGGCGGGAUAGCGCCAACGUUCUCAACUAUGACACGCAAAACGCGUGCUCCGUUGAAUGGAGUUUAUCAUG [A12G C87G] | -3.83 |
| GGAUCUUCUCGAUCUAACAAAAAAGACAAAUCUGCCACAAAGCUUGAGAGCAUCUUCGGAUGCAGAGGCGGCAGCCUUCGGUGGCGCGAUAGCGUCAGCGUUCUUAACUAUGACACGCAAAACGCGUGCUCCGUUGAAUGGAGUUUAUCAUG [C95U A98G C105U] | 0.768 |
